Test results reported in PMC13070007, “TRBC2-targeting antibody–drug conjugates for the treatment of T cell cancers” (Nature cancer, 2025).
Substitutions are numbered along the chain they refer to. In names and notes the source's numbering stands. Each block holds one binder with its values, some of them ahead of it.

Assays:
[1] = target: T1, TRBC2 protein (recombinant) (Homo sapiens, UniProt A0A5B9); experiment: SPR; Biacore T200, 25 °C; antibodies captured on protein A/G immobilised on CM5 chips; TRBC1 or TRBC2 protein as analyte, threefold dilutions from 1,000 nM to 4.1 nM, multiple-cycle kinetics; PBS-P (20 mM phosphate pH 7.4, 137 mM NaCl, 2.7 mM KCl, 0.05% P20); 1:1 kinetics binding model; conditions: both partners purified
T1 construct: T cell receptor beta constant 2 (TRBC2), recombinant protein bought from Acro Biosystems; The discussion calls it 'TRBC2 peptide'; see the vendor's data sheet for the catalogue number; also called recombinant TRBC2 protein; TRBC2 peptide; source: bought: Acro Biosystems, cat. no; TR2-H52H3

[2] = target: T2, TRBC1 protein (recombinant) (Homo sapiens, UniProt P01850); experiment: as above; conditions: both partners purified
T2 construct: T cell receptor beta constant 1 (TRBC1), recombinant protein bought from Acro Biosystems; The discussion calls it 'TRBC1 peptide'; see the vendor's data sheet for the catalogue number; also called recombinant TRBC1 protein; TRBC1 peptide; source: bought: Acro Biosystems, cat. no; TR1-H52H4

TRBC1^+ TCR on T cells = target: T3, TRBC1^+ TCR on T cells (Homo sapiens, UniProt P01850); experiment: flow cytometry on cells; T cell cancer cell lines stained with anti-TRBC2 antibodies with a mouse IgG2a Fc, then anti-mouse IgG-Alexa Fluor-647; conditions: one partner purified
T3 construct: variable part (TRBV-TRBD-TRBJ) of the beta chain, different in each cell line or T cell; T cell receptor beta constant 1 (TRBC1) as part of the alpha-beta TCR on the cell surface; On cells the beta chain stands in the whole TCR-CD3 complex; also called TRBC1^+ cells; source: endogenous on wild-type Jurkat and H9 cells; normal human T cells from PBMCs

Kd [1]: 23 nM
binding result [2]: no binding
B1: YR3-A5 anti-TRBC2 antibody (antibody, V domains shown)
VH: QVQLVQSGAEVKKPGASVKVSCKASPRGFHGYHMHWVRQAPGQGLEWMGFINPYNDDIQSNERFRGRVTMTSDKSTTTAYMELSSLRSEDTAVYYCARGNGKWGDGAYRFFDFWGQGTLVTVSS
VL: DVVMTQSPLSLPVTPGEPASISCRSSQNLVHSNGRTYLQWYLQKPGQSPQLLIYRVSNRFPGVPDRFSGSGSGTDFTLKISRVEAEDVGVYFCSQSTHVPYTFGGGTKVEIK
notes: also called parent; source: transient transfection of CHO cells (ExpiCHO or CHO-S), purified (HisTrap column or Protein A magnetic beads; SEC); copies: 2 + 2

binding result (TRBC1^+ TCR on T cells): no binding
Kd [1]: 10 nM
koff [1]: 0.0013 s⁻¹
binding result [2]: no binding
B2: JX1.1 anti-TRBC2 antibody (antibody, V domains shown)
VH: B1 VH with R27Y
VL: B1 VL with V30K, S32R
notes: human VH; murine IgG2a Fc region; human VL; Human variable light and heavy chains fused to a murine IgG2a Fc region; also called clone V30K, S32R, R27Y; source: ExpiCHO or CHO-S cells, purified (HisTrap column or Protein A magnetic beads; SEC); copies: 2 + 2
